From the RNAGym collection of RNA variant scans (doi:10.1073/pnas.2313332121)

B1: TPR t1 (parent)
chain: GACCAAUCUGCCCUCAGAGCUCGAGAACAUCUUCGGAUGCAGAGGAGGCAGGCUUCGGUGGCGCGAUAGCGCCAACGUCCUCAACCUCCAAUGCAUCCCACCACAUGAUGAUGCCUGAAGAGCCUUGGUUUUUUG

Variants of: B1
Experiment: polymerase ribozyme fitness, log enrichment relative to wild type (log ratio); higher = more active; in vitro selection for triplet polymerase activity
Outline: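 A heterodimeric triplet polymerase ribozyme had each of its subunits mutagenized by PCR into a library, which was transcribed. One round of in vitro selection, done in triplicate, annealed each library with a biotinylated primer, its partner subunit and triplets, then incubated it frozen at −7 °C before gel excision of extended constructs, streptavidin-bead capture and RT-PCR. Fitness is the logarithm of genotype enrichment relative to wild-type enrichment, based on Illumina sequencing of inputs and outputs and inverse-variance-weighted replicate averages. A base-2 logarithm is used, and genotypes were kept only with ≥10 input reads and ≥1 read per output.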

Variant	polymerase ribozyme fitness (log ratio)
GACCCAUCUGCCCUCAGAGCUCGAGAACAUCUUCGGAUGCAGAGAAGGCAGGCUUCGGUGGCGCGAUAGCGCCAACGUCCUCCACCGCCAAUGCAUCCCACCACAUGAUGAUGCCUGAAAAGCCUUGGUUAUUUG	-0.712
GACCAAUCUGCUCUCAGAGCUCGAGAACAUCUUCGGAUGCAGAGGAGACAGGCUUCGGUGGCGCGAUAGCGCCAACGUCCUCAACCUCCAAUGCAUCCCACCACAUGAUGAUGCGUGAAGAGCCUUGGAUUUUUU	-2.25
GACCAAUCUGCCCUCAGAGCUCGAGAACAUCUUCGGAUGCAGAGGAGGCAGGCUUCGGUGGUUCGAUAGCGCCAACGUCCUCAACCUCCAAUGCAUCCCACCCCAUGAUGAUGACUGAAGAGCCUUGGUUUUUUG	-4.66
GACCAAUCUGCCCUCAGAGCUCGAGAACAUCUUCGGAUGCAGAGGAGGCAGACUUCGGUGGCGCGAUAGCGCCAACGUCCUCAACCUCCAAUGCCUCCCACCACAUGAUGAUCCCUGAAGAGCCUUGGUUUUUUG	-3.3
GACCAAUCUGCCCUCAGAGCUCGAGAACAACUUCGGAUGCAGAGGAGGCAGGCUUCGGUGGCGCGAUAGCGCCAACGUCCUCAACCUCCAAUGCAUCCCACCACAUGAUGUUGCCUGAAGAGCCUUGGUUUUUUG	-4.14
GACCAAUCUGCCCUCAGAGCUCGAGAACAUCUUCGGAUGCAGAGGAGGCAGGCUUCGGUGGCGCGAUAGCGCCAACGUCCUCUACCUCCAAUGCAUCCCACCACAUGAUGAUGCCUGAAGAGCCUUGGUUUUUUG	-0.119
GACCAAUCUGGCCUCAGAGCUCGAGAACAUCUUCGGUUGCAGAGGAGGCAGGCUUCGGUGGCGCGAUAGCACCAACGUACUCAACCUCCAAUGCAUCCCACCACAUGAUGAUGCCUGAAGAGCCUUGGUUUUUUG	-1.37
GACCAAUCUGCCCUCAGAGCUCGAGAACAUCUUCGGAUGCAGAGGUGGCAGGCUUCGAUGGCGCGAUAGCGCCAACGUCCUCGCCCUCCAAUGCAUCCCACCACAUGAUGAUGCCUGAAGAGCCUUGGUUUUUUG	-2.18
GACCAAGCUGCCCUCAGAGCUCGAGAACAUCUUCGGAUGCAGAGGAGGCAGGCUUCGGUGGCGCGAUAGCGCCAACGUCCUCACCCUCCAAUGCAUCCCACCACAUGAUGACGCCUGAUGAGCCUUGGUUUUUUG	1.28
GACCAAUCUGCCCUCAGAGCUCGUGAACAUCAUCGGAUGCAGAGGAGCCAGGCUUCGGUGGCGCGAUAGAGCCUACGUCCACAACCUCCAAUGCAUCCCACCACAUGAUGAUGCCUGAAGGGCCGUGGUUUUUUG	-7.22
GACCAAUCUGCCCUCAAAGCUCGAGAACAUCUUCGGAUGUAGAGGAGGCAGGCUUCGGUGGCGCGAUAGCGCCAACGUCCUCAACCUCCAAUGCAUCCCACCACAUGAUGAUGCCUGAAGAGCCUUGGUUUUUUG	-3.88
GACCAAUCUGCCCUCAGAGCUCGAGAACAUCUUCGGAUACAGAGGAGGCAGGCUUCGGUGGCGCGAUAGCGCCAACGUCCUCAACCUCCAAUGCAUCCCACCACAUGAUGAUCCCUGAAGAGCGUUGGUUUUUUG	-1.58
GACCAAUCUGCCCUCAGAGCUCGAGACCAUCUUCGGAUGCAGAGGAGGCAGGCUUCGGUGGCGCGAUAGCGACAACGUCCUCAACCUCCAAUGCAUCCCACCACAUGAUGAUGCCUGAAGAGCCUUGGUUUUUUG	-3.22
GACCAAUCUGCCCUCAGAACUCGAGAACAUCUUCGGAUGCAGAGGAGGCAGGCCUCGGUGGCGCGAUAGCGCGAACGUCCUGAACCUCCAAUGCAUCCCACCACAUGAUGAUGGCUGAAGAGCCUUGGUUUUUUG	-4.42
GACCAAUCUGCCCUCAGAGCUCGAGAACAUCUUCGGAUGCAGAGGAGGCAGGCUUCGGUGGCGCGAUAGCGCCAACGUCCUCAACCUCCAAUGCAUUCCACCACAUGAUGAUGCCUGAAGAGCCAUGGUUUUUUG	-1.31
GACCAAUCUGCCCUCAGAGCUCGAGAACAUCUUCGAAUGCAGAGGAGGCAGGCUUCGGUGGCGCGAUAGCUCCAACGACCUCAACCUCCAAUGCAUCCCACCACAUGAUGAUGCCUGAAGAGCCUUGGUUUUUUG	-1.53
GACCAAUCUGCCCUCAGAGCUCGAGAACAUCUUCGGAUGCAGAGGAGGCAGGCUUGGGUGGCGCGAUAGCGCCAACGUCCUCAACCUCCAAUGCAUCCCACCACAUGAUGAUGCCUGAAGAGCCUUGGUUUCUUG	-0.811
GACCAAUCUGCCCUCAGAGCUCGAGAACAUCUUCGGAUGCAGAGGAGGCAAGCUUCGGUGGCGCGAUAGCGCCAACGUACUCAACCUCCAAUGCAUCCCACCACAUGAUGAUACCUGAAGAGCCUUGGUUUUUUG	-3.64
GACCAAUCUGCCCUCAGAGCUCGAGAACAUCUUCGGAUGCAGAGGAGGCAGGCUUCGGUGGCGCGAUAGCGCAAACGUCCUCAACCUCCAAUGCAUCCCACCACAUGGUGAUGCCAGAAGAGUCUUGGUUUUUUG	-5.63
GACCAAUCUGCUCUCAGAGCUCGAGAACAUCUUCGGAUGCAGAGGAGGCAGGCUUCGGUGGCGCGAUAGCGUCAACGUCCUCAACCUCCAAUGCAUCCCACCACAUGAUGAUGCCUGAAGAGCCUUGGUGUUUUG	-0.295
GACCAAUCUGCCCUCAGAGCUCGAGAACAUCUUGGGAUGCAGAGGAGGCAGGCUUCGGUGGCGCGAUAGCGCCAACGUCCUCAACCUCCAAUGCAUCCCACCACAUGAUGAUGCCUGAACAGCCUUGGUUUUUUG	-4.78

Variant	polymerase ribozyme fitness (log ratio)
GACCAAUCUGCCCUCAGAGCUCGAGAACAUCUUCGGAUGCAGAGGAGGCAGGCUUCGGUGGCGCGAUAGCGCCAACGUCCUCAACAUCCAAUGCAUCCCACCACAUGAUGAAGCCUGAAGAGCCUUGGUUUUUUG	0.808
GACCAAUCUGCCCUCAGAGCUCGAGAACAUCUUCGGAUGCAGAGGAGGCAGGCUUCGGUGGCGCGAUAGGGCCAACGUCCUCAACCUCCAAUGCAUCCCACCACAUGAUGCUGCCUGAAGAGCCUUGGUUUUUUG	-3.24
GACCAAUCUGCCCUCAGAGCUCGAGAACAUCUUCGGAUGCAGAGGAGGCAGGCUUCGGUGGCGCGAUCGCGCCAACGUCCUCAACCUCCAAUGCAUCCCACCACAUGAUGAUGCCAGAUGAGCUUUGGUUUUUUG	-7.83
GACCAAUCUGUCCUCAGAGCUCGAGAACAUCUUCGGAUGCAGAGGAGGCAGGCUUCGGUGGCGCGAUAGCGCCAACGUCCUCAACCUCCAAUGCAUCCCACCACAUGAUGAUGCUUGAAGAGCCUUGGUUUUUUG	-1.61
GACCAAUGUGCCCUCAGAGCUCGAGAACAUCUUCGGAUGCAGAGGAGCCAGGCUUCGGUGGCGCGAUAGCGCCAACGUCCUCAACCUCCUAUGCAUCCCACCACAUGAUGAAGCCUGAAGAGCCUUGGUUUUUUG	0.378
GACCAAUCUGCCAUCAGAGCUCGAGAACAUCUUCGGAUGAAGAGGAGGCAGGCUUCGGUGGCGCGAUAGCGCCAACGUCCUCAACCUCCAAUACAUCCCACCACAUGAUGAUGCCUGUAGAGCCUUGGCUUUUUG	-3.28
GACCAAUCUGCCCUCAGAGCUCGAGAACGUCUUCGGAUGCAGAGGAGGGAGGCUUCCGUGGCGCGAUAGCGCCAACGUCCUCAACCUCCAAUGCAUCCCACCACAUGAUGAUGCCUGAAGCGCCUUGGUUUUUUG	-0.725
GACCAAUCUGCCCUCAGAGCUCGAGAACAUCUUCGGAUGCAGUGGAGUCAGGCUUCGGUGGCGCGAUAGCGCCAACGUCCUCAACCUCCAAUGCAUCCCACCACAUGAUGAUGCCUGAAUAGCCUUGGUUUUUUG	-2.2
GACCAAUCUGCACUCAGAGCUCGAGAACAUCUUCGGAUGCAGAGGAGGCAGGCUUCGGUGGCGGGAUAGCGCCAACGUCCUCAACCUCCAAUGCAUCGCACCUCAUGAUGAUGCCUGAGGAGCCUUGGUUUUUUG	-6.93
GACCAAUCUGCCCUCAGAGCUCGAGAAGAUCUUGGGAUGCAUAGGGGGCAGGCUUAGGUGGCGCGAUAGCGCCAACGUCCUCAACCUCCAAUGCAUCCCACCAAAUGAUGGUGCCUGAAGAGCCUUGGUUGUUUG	-5.4
GACCAAUCUGCCCUCAGAGCUCGAGAACAUCUUCGGAUGCAGAGGUGGCAGGCUUCGGUGGCGCGAUAGCGCCAACGUCCUCAACCUCCAAUGCAUCCCACCACAUGAUGAUUCCUGAAGAGCCUUGGUUUUUUG	-3.73
GACCAAUCUGCCCUCAGAGCUCGAGAACAUCUUCGGAUGCAGAGGAGGCAGGCUUCAGUGGCGCGAUAGCGCCAACGUCCUCAACCUCCAAUGCAUCCCACCACAUGAUGAUGCCUGAAGAGCCUUGGUUUUUUG	-0.653
GACCAAUCUGCCCUCAGAGCUCGAGAACAUCUUCGGAUGCAGAGGAGGCAGGCUUCGGUGGCGCGAUAGCUCCAACGUCCUCAACCUCCAAUGCAUCCCACCCCAUGAUGAUGCCUGAAGAGCCUUGGUUUUUUG	-5.76
GACCAAUCUGCCCUCAGAGCUCAAGAACAUCUUCGGAUGCAGAGGAGGCAGGCUUCGGUGGCGCGAUAGCGCAAACGUCCUCGACCUCCAAUGCAUCCCACCACAUGAUGAUGCCUGAAUAGCCUUGGUUUUUUG	-6.38
GACCAAUCUGCCCUCAGAGCUCGAGAACAUCUUAGGAUGCAGAGGAGGCAGGCUCCGGUGGCGCGAUAGCGCCAACGUCCUCAACCUCCAAUGCAUCCCACCACAUGAUGAUGCCUGAAGAGCCUUGGUUUUUUG	-3.18
GACCAAUCUGCCCUCAGAGCUCGAGAGCAUCUUCGGAUGCAGAGGGGGCAGGCUUCGGUGGCGCGAUAGCGUCAACGUCCUCAACCUCCAAUGCAUCCCACCACAUGAUGAUGCCUGAAGAGCCUUGGUUUUUUG	-3.52
GACCAAUCUGCCCUCAGAGCUCGAGAACAUCUUCGGAUGUAGAGGAGGCAGGCUUCGGUGGCGCGAUAGCGGCAACGUCCUCAACCUCCAAUGCAUCCCACCACAAGAUGAUGCCUGAAGAGGCUAGGUUAUUUG	-1.25
GACCAAUCUGCCCUCAGAGCUCGAGAACAUCUUCGGAUGCAGAGGAGGCAGGCUUCGGUGGCGCGAUAGCGCUAACGUCCGGAACCUCCAAUGCAUCCCACCACAUGAUGAUGCCUGAAGAGACUUGGUUUUUUG	0.626
GACCAAUCUGCCCUCAGAGCUCGAGAACAUCUUCGGAUGCAGAGGAGGUAGGCUUCGGUGGCGCGAUAUCGCCAACGUCCUCAACCUCCAAUGCAUCCCACCACAUGAUGAUGCCUGAAGCGCCUUGGUUUUUUG	1.51
GACCAAUCUGCCCUCAGAGCUCGAGAACAUCUUCGGAUGCAGAGGAGGCAGGCUUCGGUGGCGCGAUAGCGCAAACGUCCUCAACCUCCAAUGCAUCCCACCGCAUGAUAAUGCCUGAAGAGCCUUGGUUUUUUG	-6.42
GACCAAUCUGCCCUAAGAGCUCGAGAACAUCUUCGGAUGCAGAGGAGGCAGGCUUCGGUGGCGCGAUAGCGCCAACGUCCUCAAGCUCCAAUGAAUCCCACCACAUGAUGAUGCCUGAAGAGCCUUGGUUUUUUG	-3.92
